Source: article PMC2115537 (The Journal of Cell Biology, 1989)
One block for each binder: values may come before it.

Molecular target: F-actin (rabbit skeletal muscle actin filaments) (rabbit, UniProt P68135 1-377)
Assay: co-sedimentation

Kd: 2000 nM
B1: dephosphorylated synapsin I (natural protein)
chain: not shown

Kd: 1800 nM
B2: synapsin I phosphorylated on all three sites (natural protein)
chain: not shown
modifications: phosphorylated on all three sites (sites 1, 2 and 3); 2.6 mol phosphate/mol synapsin I
